Data set [1] has as its target T1, Trx-HIS6-hTERT(1-200) (hTEN) (human, UniProt O14746 1-200). Briefly: EMSA. (In general: Mobility shift assays separate free from complexed probe on a gel.)
Data set [2] concerns the target Trx-HIS6-hTERT(1-200) Q169A (human, UniProt O14746 1-200, Q169A). Briefly: EMSA.
Data set [3] has as its target Trx-HIS6-hTERT(1-200) T116A/T117A/S118A (human, UniProt O14746 1-200, T116A;T117A;S118A). Briefly: EMSA.
Data set [4] addresses Trx-HIS6-hTERT(1-200) Y18A (human, UniProt O14746 1-200, Y18A). Briefly: EMSA.
In data set [5] the target is T1, Trx-HIS6-hTERT(1-200) (hTEN). Put plainly: competition EMSA.
The target is the same in data set [6]. Put plainly: competition EMSA. The source holds these as a separate data set.
For data set [7] the target is unchanged. Put plainly: competition EMSA. This is another data set of the same source.
Data set [8] shares this target. Briefly: competition EMSA. The source holds these as a separate data set.
The target is the same in data set [9]. Briefly: competition EMSA. The source holds these as a separate data set.

T1 sequence (O14746 1-200): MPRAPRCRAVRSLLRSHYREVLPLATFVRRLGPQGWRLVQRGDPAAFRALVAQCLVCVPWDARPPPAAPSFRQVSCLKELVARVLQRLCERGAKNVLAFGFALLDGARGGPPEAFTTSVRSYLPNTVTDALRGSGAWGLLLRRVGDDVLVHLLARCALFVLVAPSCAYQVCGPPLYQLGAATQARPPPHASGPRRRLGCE
Chain of Trx-HIS6-hTERT(1-200) Q169A (O14746 1-200 Q169A): as the sequence (O14746 1-200) above, with Q169A counted along it
Chain of Trx-HIS6-hTERT(1-200) Y18A (O14746 1-200 Y18A): as the sequence (O14746 1-200) above, with Y18A counted along it
Chain of Trx-HIS6-hTERT(1-200) T116A/T117A/S118A (O14746 1-200 T116A/T117A/S118A): as the sequence (O14746 1-200) above, with T116A, T117A, S118A counted along it

B1: (TTAGGG)3 / I (ssDNA)
DNA: TTAGGGTTAGGGTTAGGG
For the molecule B1, the binding result in data set [1], in data set [2], in data set [3] and in data set [4] was “binds” throughout.

B2: II (ssDNA)
DNA: GGGTTAGGGTTAGGGTTA
As for B2, the binding result in data set [5] is “binds”.

B3: VI / (GGTTAG)2G (ssDNA)
DNA: GGTTAGGGTTAGG
As for B3, the binding result in [6] is recorded as “binds”.

B4: VI.TA6 (ssDNA)
DNA: GGTTATTATTAGG
Take B4: the binding result in [7] is recorded as “binds”.

B5: I.C11 (ssDNA)
DNA: TTAGGGTTAGCGTTAGGG
As for B5, the binding signal in data set [8] was 7 fold lower apparent affinity vs I (relative IC50).

B6: IV (ssDNA)
DNA: GTTAGGGTTAGGG
On to B6, for which, in [9], the binding result is listed as “binds”.

B7: III (ssDNA)
DNA: GGGTTAGGGTTAGGG
For B7, in [5], the binding result is on record as “binds”.

(Values after paper PMC2847226.)
